Laboratory results taken from patent US9187558B2, “Anti-epithelial cell adhesion molecule (EpCAM) antibodies and methods of use thereof” (ACADEMIA SINICA, priority 2012, dated 2015).

What was measured:
tumor invasiveness = assay: Invasion assay (Matrigel transwell); type: cell-based
Description: Colony Formation and Invasion Assay. For colony formation assay, cells were seeded at a density of 5×10^3 in 6-well plate for 10 day, followed by fixing and staining with crystal violet. For invasion assay, cells (1×10^5) were seeded at a transwell insert (8-μm polycarbonate Nucleopore filters, Corning) coated with Matrigel (BD Biosciences) at room temperature for 30 min to form a genuine reconstituted basement membrane. After 24 h incubation, cells were fixed with methanol for 10 min, and non-invaded cells were then removed by cotton swap. The invaded cells were observed by staining with DAPI, imaged under an inverted fluorescent microscopy (Zeiss), and quantified by ImageJ software.

[1] = test system: vimentin, snail, and slug; assay: EMT gene expression; type: cell-based, human
Description: (§1) Immunoprecipitation and Western Blot Analysis. […] The supernatants were immunoprecipitated using anti-EpCAM antibodies.
RNA Extraction and Quantitative Real-Time RT-PCR. Total RNAs were prepared from the cell lines using ULTRASPEC RNA isolation reagent (Biotecx Laboratories, Houston, Tex.). cDNAs were reverse-transcribed using Super-Script III RNaseH-reverse transcriptase (INVITROGEN®, Carlsbad, Calif.) according to the manufacturer's instructions. Quantitative RT-PCR was performed by using the LightCycler480 System (Roche Applied Science). The gene expression level of each sample was normalized to the expression level of GAPDH in the same sample. The reactions were performed in triplicate, and S.D. values were calculated.

HCT116 sphere cells = assay: Spheroid (tumorsphere formation) assay; type: cell-based, human
Description: Spheroid Assay. For spheroid formation, culture cells were disassociated into single cells. 5×10^3 cells were seeded at an ultra-low 6-well plate (CORNING™ for 6 days and were maintained in DMEM/F12 supplemented with B27 (INVITROGEN®), EGF (10 ng/ml) and FGF (25 ng/ml) twice a week. The spheres were counted under a microscope. For serum-induced differentiation assay, tumorspheres were cultured in matrigel-coated plate supplemented with DMEM containing 10% FBS for 7 days to induce the differentiation process.

release of EpEX = assay: Release of EpEX into HCT116 culture supernatants (immunoprecipitation and Western blot); type: cell-based, human; settings: HCT116 cells, 24 h; DAPT 50 μM, TAPI 40 μM
Text: as §1

EpICD cleavage = EpICD cleavage and cellular localization (confocal immunofluorescence, Western blot); type: cell-based, human; settings: for EpICD cleavage: 24 h, TAPI 40 μM
Description: Immunofluorescent Staining. Cells cultured on cover slips were fixed in paraformaldehyde, washed, and then blocked with 1% bovine serum albumin in PBS for 10 min. Cells were incubated at room temperature with primary antibodies in 1% bovine serum albumin. After 1 h incubation, cells were washed and incubated with fluorescein isothiocyanate (FITC) goat anti-mouse antibody (Jackson ImmunoResearch Laboratories), Alexafluor488 goat-anti-mouse or Alexaflour568 goat-anti-rabbit (INVITROGEN®) antibodies. 4′,6-Diamidino-2-phenylindole (DAPI) was added for nuclear counter staining.
as §1

[2] = test system: c-MYC, OCT4, NANOG, and SOX2 promoters; assay: Luciferase reporter assay of reprogramming gene promoters; type: cell-based, human
Description: Luciferase Reporter Assay. Cells were seeded in a plate and co-transfected with pcDNA3.1, EpCAM, EpICD, or EpEX-expressing vectors (400 ng) and pGL4-Oct4-Luc, Nanog-Luc, Sox2-Luc, or c-Myc-Luc-expressing plasmid (100 ng) by PolyJET for 24 h. Promoter activities were measured by the Dul-Glo Luciferase kit (Promega), and the transfected efficiency was normalized by co-transfection with pRL-TK (20 ng) as an internal control.

[3] = test system: HCT116 and tumorsphere (HCT116 sphere) cells; assay: Hypodiploid DNA content by flow cytometry with PI staining; type: cell-based, human; settings: tumor and tumorsphere cells
Description: (§2) Apoptosis Assays. Cells were separately seeded and treated with 0-20 μg/ml mAbs for 6 h. Apoptotic cells were detected by Annexin V-FITC and PI and analyzed by a flow cytometer (BD imnmmunocytometry systems, San Jose, Calif.). Early apoptosis was measured with the Annexin V-FITC Apoptosis Detection kit II (BD Pharmingen, La Jolla, Calif.). Apoptotic nuclei were detected with propidium iodide (PI) staining.

[4] = test system: EpCAM mutants (Y95, D96 on EGF-II domain); settings: mutations in positions Y95 or D96 on EGF-II domain; 1 μg/ml antibody
Description: HEK293 cells at 80%-90% confluency in 6-well plates were transfected with plasmids of various EpCAMs. After two days transfection, the cells were washed with PBS. Cells were extracted with RIPA buffer, supplemented with a protease inhibitor mixture tablet and spun at 20,000 g for 30 min at 4° C. […] The signals were developed using enhanced chemiluminescence reagents (ECL) (Thermo Scientific, Rockford, Ill.).

[5] = test system: SAS and HCT116 cell lines; assay: Apoptosis assay, Annexin V-FITC and PI flow cytometry; type: cell-based, human; settings: 0-20 μg/ml, 6 h
Description: as §2

[6] = test system: SAS-derived oral cancer xenografts; assay: SAS-derived oral cancer xenograft antitumor efficacy; settings: n=6
Description: Animal Model for Analysis of Antitumor Efficacy. […] Treatments were administered through tail vein injection, 10 mg/kg twice a week, for 4 consecutive weeks, with a total dose of 80 mg/kg. […] The tumor volumes were calculated as length×(width)^2×0.52.

CCD-1112Sk normal cells = assay: Cellular ELISA binding to normal foreskin cells; design: species or system human
[7] = test system: human cancer cells (SAS, NPC039, HCT116, SKOV3); assay: Cellular ELISA, Western blot and FACS binding to cancer cell lines; settings: Western blot, FACS
Description: ELISA. 96-well plates (Corning Costar, St. Louis, Mo.) were seeded with SAS (oral carcinoma), NPC, HCT116 (colon cancer), SKOV3 (ovarian cancer cell line), NNM and HUVEC cells. The plates fixed with 2% paraformaldehyde and blocked with 1% bovine serum albumin. OCAb9-1 was added to the plates and incubated for 1 h. The plates were then washed with PBS containing 0.1% (w/v) TWEEN® 20 (PBST0.1) and incubated with horseradish peroxidase-conjugated anti-mouse IgG (Jackson ImmunoResearch Laboratories) for another 1 h. After washing, the plates were incubated with substrate solution o-phenylenediamine dihydrochloride (SIGMA™). The reaction was stopped by adding 3 N HCl, and the plates were read using a microplate reader at 490 nm.
Flow Cytometry. SAS, HCT116 and NNM were dissociated with 0.25% trypsin-EDTA (1 mM) (INVITROGEN®) for 1-3 min. Cells were washed with fluorescence-activated cell sorting buffer (PBS containing 1% fetal calf serum) and then incubated for 1 h at 4° C. in fluorescence-activated cell sorting buffer with the OCAb9-1 and EpAb mAbs at dilutions that ranged from […]. Phycoerythrin-conjugated goat anti-mouse IgG was used as a secondary antibody (dilution 1:250; Jackson ImmunoResearch Laboratories (West Grove, Pa.) for 30 min at 4° C. After the final wash, the cells were re-suspended with 1% FBS in PBS and analyzed by flow cytometry (BD, San Jose, Calif.). […]

[8] = HCT116 cells, sEpEX 2.5, 5 μg/ml

Molecule: C[C@H](NC(=O)Cc1cc(F)cc(F)c1)C(=O)N[C@H](C(=O)OC(C)(C)C)c1ccccc1 [DAPT]
- tumor invasiveness (tumor invasiveness): decreasing
- expressions of vimentin, snail, and slug [1]: suppressed
- sphere-forming capacity (HCT116 sphere cells): decreasing
- release of EpEX (release of EpEX): blocked the release of EpEX
- expression of soluble EpICD-v5 (10 kDa) (EpICD cleavage; 293T/EpCAM-v5 cells): reduced
- EpICD cleavage (EpICD cleavage; HCT116 cells, DAPT 50 μM): inhibited EpICD cleavage
- soluble EpICD signals in cytoplasm and nucleus (EpICD cleavage; HCT116 cells, DAPT 50 μM): blocked
- EpCAM-induced transcriptional activities of c-MYC, OCT4, NANOG, and SOX2 [2]: blocked

Molecule: TAPI
- release of EpEX (release of EpEX): blocked the release of EpEX
- EpICD cleavage (EpICD cleavage; HCT116 cells, DAPT 50 μM): inhibited EpICD cleavage

B1: EpAb2-6: one of five newly generated anti-EpCAM mAbs; VH SEQ ID NO: 2, VL SEQ ID NO: 3 (antibody, listed as Homo sapiens, V domains shown)
VH: EVQLVESGPELKKPGETVKISCKASGYTFTDYSMHWVKQAPGKGLKWMGWINTETGEPTFADDFKGRFAFSLETSARTTYLQINNLKNEDTATYFCARTAVYWGQGTSLTVSS
VL: DIQLTQSPSSLSASLGERVSLTCRASQEISVSLSWLQQKPDGTIKRLIYATSTLDSGVPKRFSGSRSGSDYSLTISSLESEDFADYYCLQYASYPWTFGGGTKLEIKRADAAPTVS
- hypodiploid DNA content [3]: induced hypodiploid DNA content
- tumorsphere formation (HCT116 sphere cells; 6 days treatment): suppressed tumorsphere formation effectively
- relative binding activity to EpCAM mutants vs wild type [4]: markedly reduction
- induction of cancer cell apoptosis [5]: could induce cancer cell apoptosis
- tumor size of control PBS group relative to EpAb2-6 group ([6]; 10 mg/kg i.v. twice a week): 1.5 fold
- median overall survival of tumor-bearing mice ([6]; SAS xenograft): 71 days

B2: hEpAb2-6: CDRs of EpAb2-6 grafted onto human IgG1 backbone; VH SEQ ID NO: 24, VL SEQ ID NO: 25 (antibody, V domains shown)
VH: VKLQESGPELKKPGETVKISCKASGYTFTDYSMHWVKQAPGKGLKWMGWINTETGEPTYADDFKGRFAFSLETSASTAYLQINNLKNEDTATYFCARTAVYWGQGTTVTVSS
VL: DIQMTQSPSSLSASLGERVSLTCRASQEISVSLSWLQQEPDGTIKRLIYATSTLDSGVPKRFSGSRSGSDYSLTISSLESEDFVDYYCLQYASYPWTFGGGTKLEIKRADAAPTVS
modifications: human IgG1 backbone; Humanized VH domain; Humanized VL domain
- recognition of CCD-1112Sk normal cells (CCD-1112Sk normal cells): not CCD-1112Sk normal cells
- recognition of (binding to) human cancer cells [7]: recognized both SAS and HCT116 cancer cells
- induction of cancer cell apoptosis [5]: induced cancer cell apoptosis

B3: sEpEX: soluble extracellular domain of EpCAM (protein, UniProt P16422 24-265, looked up)
extracellular domain: QEECVCENYKLAVNCFVNNNRQCQCTSVGAQNTVICSKLAAKCLVMKAEMNGSKLGRRAKPEGALQNNDGLYDPDCDESGLFKAKQCNGTSMCWCVNTAGVRRTDKDTEITCSERVRTYWIIIELKHKAREKPYDSKSLRTALQKEITTRYQLDPKFITSILYENNVITIDLVQNSSQKTQNDVDIADVAYYFEKDVKGESLFHSKKMDLTVNGEQLDLDPGQTLIYYVDEKAPEFSMQGLK
modifications: extracellular domain
notes: soluble extracellular domain of EpCAM
- induction of vimentin expression [1, 8]: inductions
- induction of EpICD cleavage (EpICD cleavage; [8]): inductions
- reporter activities of c-MYC, OCT4, NANOG, and SOX2 ([2]; HCT116 cells, sEpEX 2 μg/ml): induced reporter activities
